Kd data for 1 molecule are collected here from PMC7617670, “Activity Regulation of a Glutamine Amidotransferase Bienzyme Complex by Substrate-Induced Subunit Interface Expansion” (ACS catalysis, 2025).

Common to all, as to test: ITC; 250 μM PabB titrated into 25 μM PabA in the cell; 25 °C; 50 mM Tris/HCl pH 7.5, 50 mM KCl, 5 mM MgCl2; without Cho and Gln; one set of sites
Holding throughout (details): both partners purified

One assay addresses T1, PabB variant bE119D (Escherichia coli, UniProt P05041 1-453, bE119D).
T1 construct: PabB, synthase subunit of ADCS, E. coli; construct as m2 with one exchange; Made by QuikChange mutagenesis from the construct of m2; source: E. coli BL21-Gold (DE3), purified (Ni-IMAC, preparative gel filtration)
T1 sequence: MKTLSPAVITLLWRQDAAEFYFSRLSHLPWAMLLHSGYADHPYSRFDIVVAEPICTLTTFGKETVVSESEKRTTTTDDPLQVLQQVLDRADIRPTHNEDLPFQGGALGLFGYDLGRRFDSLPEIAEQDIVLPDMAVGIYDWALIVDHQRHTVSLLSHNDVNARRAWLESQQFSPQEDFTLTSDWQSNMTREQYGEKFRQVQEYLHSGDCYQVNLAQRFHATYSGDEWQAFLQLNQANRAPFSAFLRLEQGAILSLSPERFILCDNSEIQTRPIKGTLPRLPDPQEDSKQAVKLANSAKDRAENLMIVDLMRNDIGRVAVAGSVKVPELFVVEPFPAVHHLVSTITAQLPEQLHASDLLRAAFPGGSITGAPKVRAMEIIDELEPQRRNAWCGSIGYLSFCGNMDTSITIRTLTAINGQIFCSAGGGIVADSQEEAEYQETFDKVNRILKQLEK

Another assay has as its target T2, PabB variant bY210F (Escherichia coli, UniProt P05041 1-453, bY210F).
T2 construct: PabB, synthase subunit of ADCS, E. coli; construct as m2 with one exchange; Made by QuikChange mutagenesis from the construct of m2; source: E. coli BL21-Gold (DE3), purified (Ni-IMAC, preparative gel filtration)
T2 sequence: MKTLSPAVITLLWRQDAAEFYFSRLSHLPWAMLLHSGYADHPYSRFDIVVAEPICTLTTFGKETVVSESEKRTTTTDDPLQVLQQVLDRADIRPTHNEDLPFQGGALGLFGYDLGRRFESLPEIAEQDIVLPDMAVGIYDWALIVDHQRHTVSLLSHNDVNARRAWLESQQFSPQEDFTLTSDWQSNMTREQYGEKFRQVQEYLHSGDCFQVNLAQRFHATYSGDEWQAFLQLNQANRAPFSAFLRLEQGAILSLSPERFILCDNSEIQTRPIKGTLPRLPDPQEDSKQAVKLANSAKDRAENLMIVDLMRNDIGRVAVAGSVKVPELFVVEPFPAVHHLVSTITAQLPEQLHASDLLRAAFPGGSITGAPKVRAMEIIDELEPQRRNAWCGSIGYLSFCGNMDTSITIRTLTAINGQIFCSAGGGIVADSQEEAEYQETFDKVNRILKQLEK

Another assay has as its target T3, PabB variant bY210A (Escherichia coli, UniProt P05041 1-453, bY210A).
T3 construct: PabB, synthase subunit of ADCS, E. coli; construct as m2 with one exchange; Made by QuikChange mutagenesis from the construct of m2; source: E. coli BL21-Gold (DE3), purified (Ni-IMAC, preparative gel filtration)
T3 sequence: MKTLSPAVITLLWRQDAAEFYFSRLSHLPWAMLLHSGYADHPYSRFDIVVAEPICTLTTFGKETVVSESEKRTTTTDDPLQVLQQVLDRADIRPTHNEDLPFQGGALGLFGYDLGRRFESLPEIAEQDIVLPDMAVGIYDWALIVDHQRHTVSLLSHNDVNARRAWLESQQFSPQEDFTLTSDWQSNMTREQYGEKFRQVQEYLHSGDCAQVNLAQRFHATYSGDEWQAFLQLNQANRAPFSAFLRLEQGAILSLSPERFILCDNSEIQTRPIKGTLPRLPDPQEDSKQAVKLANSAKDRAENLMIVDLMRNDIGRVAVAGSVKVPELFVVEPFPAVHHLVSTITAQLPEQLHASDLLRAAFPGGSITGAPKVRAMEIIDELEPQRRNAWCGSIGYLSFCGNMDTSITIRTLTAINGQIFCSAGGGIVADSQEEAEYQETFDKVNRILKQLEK

B1: PabA, glutaminase subunit of aminodeoxychorismate synthase (ADCS) from Escherichia coli, wild type (enzyme)
chain: MILLIDNYDSFTWNLYQYFCELGADVLVKRNDALTLADIDALKPQKIVISPGPCTPDEAGISLDVIRHYAGRLPILGVCLGHQAMAQAFGGKVVRAAKVMHGKTSPITHNGEGVFRGLANPLTVTRYHSLVVEPDSLPACFDVTAWSETREIMGIRHRQWDLEGVQFHPESILSEQGHQLLANFLHR
notes: PabA, class I glutaminase subunit of ADCS, E. coli; the gene was cloned into pET28a; Form used for SEC, ITC and kinetics; TEV cleavage is told only of the proteins used for crystallization; The G5H-Tag stands between the TEV site and the start methionine of PabA; also called wt PabA; ADCS glutaminase subunit; source: E. coli BL21-Gold (DE3), purified (Ni-IMAC, preparative gel filtration)
A word on the Kd: it is the free concentration of one partner at which half of the binding sites on the other are occupied at equilibrium, for simple one-to-one binding. The low end stands for a tighter complex, the high end for a looser complex. With B1, the Kd in the assay with PabB variant bE119D was 840 nM; with PabB variant bY210F, 530 nM; in the assay with PabB variant bY210A, 5500 nM.
